Measured values taken from US20030186334A1, “KTS-disintegrins” (Temple University - Of the Commonwealth System of Higher …, priority 2001, published 2003).

Tests used:
[1] = tested on: dermal microvascular endothelial cells (EC); experiment: apoptosis by caspase-3 levels in dermal microvascular endothelial cells; assay type: cell-based
Description: (§1) The mechanisms of the cancer-suppressing effect observed for obtustatin were investigated as follows. Dermal microvascular endothelial cells (EC) and human melanoma cells (MV3) were cultured and exposed to TNF-α, vincristine and obtustatin. (TNF-α and vincristine are compounds which induce cell death by apoptosis in both normal and cancerous cells.) Control cells received only vehicle. The extent of apoptosis was measured by determining caspase-3 levels.

[2] = tested on: human melanoma cells (MV3); experiment: apoptosis by caspase-3 levels in melanoma MV3 cells; assay type: cell-based
Description: as §1

α1β1 integrin [3] = molecular target: T1, α1β1 integrin (Homo sapiens, UniProt P05556+P56199); experiment: adhesion of α1K562 cells to immobilized collagen IV; assay type: cell-based; conditions: for IC50: α1K562 cells, α1β1, collagen IV
T1 construct: expressed in transfected cells; host or cells: α1K562 cells
Description: Collagen IV (0.2 μg/well) in 0.02 M acetic acid was immobilized by incubation overnight at 4° C. on a 96-well plate. Plates were then blocked with 1% (w/v) BSA (bovine serum albumin) in Hank's Balanced Salt Solution (HBSS) containing 3 mM Mg^2+ at room temperature for 1-2 hours to prevent cells from non-specifically binding to the plates. α1K562 cells were labeled by incubation with 12.5 μM 5-chloromethylfluorescein diacetete (CMFDA) in HBSS for 15 minutes at 37° C. CMFDA labeled α1K562 cells were then pelleted, washed and resuspended in HBSS buffer containing 3 mM Mg^2+ and 1% BSA. […] The plates were washed three times with HBSS containing 3 mM Mg^2+ and 1% (w/v) BSA to remove unbound cells. Bound cells were lysed using 0.5% (v/v) Triton X-100 in H2O. Fluorescent CMFDA released by lysis of adherent cells in a given well was read using a Cytofluor 2350 fluorescence plate reader.
(§2) Adhesive ligands for the selected integrins consisted of collagen IV (0.2 μg/well), collagen I, fibronectin, or vascular cell adhesion molecule-1 (VCAM-1). Adhesive ligands in 0.02 M acetic acid were immobilized overnight at 4° C. on a 96-well plate. Plates were then blocked with 1% (w/v) BSA (bovine serum albumin) in Hank's Balanced Salt Solution (HBSS) containing 3 mM Mg^2+ at room temperature for 1-2 hours to prevent cells from non-specifically binding to the plates. α1K562, α2K562, K562, A5, and Jurkat cells expressing the α1β1, α2β1, α5β1, αIIbβ3, and α4β1 integrins respectively were labeled by incubation with 12.5 μM 5-chloromethylfluorescein diacetate (CMFDA) in HBSS for 15 minutes at 37° C. CMFDA labeled cells were then pelleted, washed and resuspended in HBSS buffer containing 3 mM Mg^2+ and 1% (w/v) BSA. […] Plates were then incubated at 37° C. for 30 minutes as indicated in Table 5 and washed three times with HBSS containing 3 mM Mg^2+ and 1% (w/v) BSA to remove unbound cells. Bound cells were lysed using 0.5% (v/v) Triton X-100 in H2O. Fluorescent CMFDA released by lysis of adherent cells in a given well was read using a Cytofluor 2350 fluorescence plate reader.
(§3) The effect of obtustatin, viperisrastatin, echistatin, and eristostatin on the binding of selected integrins to their adhesive ligands was evaluated using the cell adhesion assay described in Example 6. The integrin-expressing cells, integrins and corresponding adhesive ligands, and the results of the cell adhesion assay are shown in Table 6.

α1β1 integrin [4] = molecular target: T1, α1β1 integrin; experiment: adhesion of α1K562 cells to collagen I; assay type: cell-based; conditions: α1β1, Coll I
Description: as §2, §3

α1β1 integrin [5] = molecular target: T1, α1β1 integrin; experiment: adhesion of HS.939T cells to collagen IV; assay type: cell-based; conditions: α1β1, Coll IV
α1β1 integrin [6] = molecular target: T2, α1β1 integrin (Mus musculus, UniProt P09055+Q3V3R4); experiment: adhesion of B16F10 cells to collagen IV; assay type: cell-based; conditions: for IC50: α1β1, Coll IV
T2 construct: endogenous in cells; host or cells: B16F10 cells

α6β1 integrin = molecular target: T3, α6β1 integrin (Homo sapiens, UniProt P05556+P23229); experiment: adhesion of α6K562 cells to laminin; assay type: cell-based; conditions: α6β1, LM
T3 construct: expressed in transfected cells; host or cells: α6K562 cells

α5β1 integrin = molecular target: T4, α5β1 integrin (Homo sapiens, UniProt P05556+P08648); experiment: adhesion of K562 cells to fibronectin; assay type: cell-based
T4 construct: endogenous in cells; host or cells: K562 cells
T4 sequence (P08648 42-894 limits assumed): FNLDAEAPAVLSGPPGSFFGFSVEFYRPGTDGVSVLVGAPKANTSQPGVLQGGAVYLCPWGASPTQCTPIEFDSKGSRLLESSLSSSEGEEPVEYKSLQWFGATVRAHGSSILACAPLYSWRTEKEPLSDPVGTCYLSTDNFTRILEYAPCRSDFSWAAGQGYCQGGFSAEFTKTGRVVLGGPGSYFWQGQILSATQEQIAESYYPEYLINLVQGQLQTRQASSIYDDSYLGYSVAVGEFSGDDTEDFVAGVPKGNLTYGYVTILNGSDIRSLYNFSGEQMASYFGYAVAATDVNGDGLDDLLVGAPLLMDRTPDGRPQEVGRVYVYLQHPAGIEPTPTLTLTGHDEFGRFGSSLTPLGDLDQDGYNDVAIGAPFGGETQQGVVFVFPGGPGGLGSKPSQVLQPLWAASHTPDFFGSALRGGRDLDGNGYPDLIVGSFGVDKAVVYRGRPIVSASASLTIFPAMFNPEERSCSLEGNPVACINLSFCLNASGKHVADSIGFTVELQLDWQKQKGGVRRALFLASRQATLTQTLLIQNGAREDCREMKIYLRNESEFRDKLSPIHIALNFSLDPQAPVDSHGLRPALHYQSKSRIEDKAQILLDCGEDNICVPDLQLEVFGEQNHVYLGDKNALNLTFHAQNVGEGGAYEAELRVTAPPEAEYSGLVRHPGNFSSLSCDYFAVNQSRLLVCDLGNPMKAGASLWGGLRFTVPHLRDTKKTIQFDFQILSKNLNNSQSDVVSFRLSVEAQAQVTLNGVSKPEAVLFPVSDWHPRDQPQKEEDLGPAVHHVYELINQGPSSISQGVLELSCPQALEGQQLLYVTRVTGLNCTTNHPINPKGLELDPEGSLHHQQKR
T4 sequence (P08648 895-1049 partner limits assumed): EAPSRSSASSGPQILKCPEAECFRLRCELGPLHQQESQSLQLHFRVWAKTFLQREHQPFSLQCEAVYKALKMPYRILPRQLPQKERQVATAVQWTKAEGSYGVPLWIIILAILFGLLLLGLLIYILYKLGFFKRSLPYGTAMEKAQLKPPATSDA
T4 sequence (P05556 21-798): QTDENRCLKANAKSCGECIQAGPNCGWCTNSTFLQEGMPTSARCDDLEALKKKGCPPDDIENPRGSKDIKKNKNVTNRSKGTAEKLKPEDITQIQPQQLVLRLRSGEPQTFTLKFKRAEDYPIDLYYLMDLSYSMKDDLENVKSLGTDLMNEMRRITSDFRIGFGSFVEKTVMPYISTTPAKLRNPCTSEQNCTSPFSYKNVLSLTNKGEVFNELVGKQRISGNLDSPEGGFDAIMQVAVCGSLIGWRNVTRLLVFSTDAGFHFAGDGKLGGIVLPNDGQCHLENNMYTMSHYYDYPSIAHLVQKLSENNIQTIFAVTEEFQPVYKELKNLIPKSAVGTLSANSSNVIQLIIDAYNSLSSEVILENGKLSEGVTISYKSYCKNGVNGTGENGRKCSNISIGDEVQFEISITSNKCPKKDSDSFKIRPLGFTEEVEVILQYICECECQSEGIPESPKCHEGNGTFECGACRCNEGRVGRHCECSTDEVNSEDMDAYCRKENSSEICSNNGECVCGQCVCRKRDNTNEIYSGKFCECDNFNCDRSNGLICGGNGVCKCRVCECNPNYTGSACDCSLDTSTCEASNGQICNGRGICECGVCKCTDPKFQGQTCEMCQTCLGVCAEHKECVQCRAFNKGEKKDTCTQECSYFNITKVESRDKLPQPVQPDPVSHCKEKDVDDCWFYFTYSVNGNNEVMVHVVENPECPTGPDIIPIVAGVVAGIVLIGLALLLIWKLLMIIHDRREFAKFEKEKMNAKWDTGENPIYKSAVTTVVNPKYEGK
Description: as §2, §3

α4β1 integrin = molecular target: T5, α4β1 integrin (Homo sapiens, UniProt P05556+P13612); experiment: adhesion of Jurkat cells to VCAM-1; assay type: cell-based; conditions: α4β1, VCAM-1
T5 construct: endogenous in cells; host or cells: Jurkat cells
Description: as §2, §3

α9β1 integrin = molecular target: T6, α9β1 integrin (Homo sapiens, UniProt P05556+Q13797); experiment: adhesion of SW480α9 cells to VCAM-1; assay type: cell-based; conditions: α9β1, VCAM-1
T6 construct: expressed in transfected cells; host or cells: SW480α9 cells
T6 sequence (Q13797 30-1035): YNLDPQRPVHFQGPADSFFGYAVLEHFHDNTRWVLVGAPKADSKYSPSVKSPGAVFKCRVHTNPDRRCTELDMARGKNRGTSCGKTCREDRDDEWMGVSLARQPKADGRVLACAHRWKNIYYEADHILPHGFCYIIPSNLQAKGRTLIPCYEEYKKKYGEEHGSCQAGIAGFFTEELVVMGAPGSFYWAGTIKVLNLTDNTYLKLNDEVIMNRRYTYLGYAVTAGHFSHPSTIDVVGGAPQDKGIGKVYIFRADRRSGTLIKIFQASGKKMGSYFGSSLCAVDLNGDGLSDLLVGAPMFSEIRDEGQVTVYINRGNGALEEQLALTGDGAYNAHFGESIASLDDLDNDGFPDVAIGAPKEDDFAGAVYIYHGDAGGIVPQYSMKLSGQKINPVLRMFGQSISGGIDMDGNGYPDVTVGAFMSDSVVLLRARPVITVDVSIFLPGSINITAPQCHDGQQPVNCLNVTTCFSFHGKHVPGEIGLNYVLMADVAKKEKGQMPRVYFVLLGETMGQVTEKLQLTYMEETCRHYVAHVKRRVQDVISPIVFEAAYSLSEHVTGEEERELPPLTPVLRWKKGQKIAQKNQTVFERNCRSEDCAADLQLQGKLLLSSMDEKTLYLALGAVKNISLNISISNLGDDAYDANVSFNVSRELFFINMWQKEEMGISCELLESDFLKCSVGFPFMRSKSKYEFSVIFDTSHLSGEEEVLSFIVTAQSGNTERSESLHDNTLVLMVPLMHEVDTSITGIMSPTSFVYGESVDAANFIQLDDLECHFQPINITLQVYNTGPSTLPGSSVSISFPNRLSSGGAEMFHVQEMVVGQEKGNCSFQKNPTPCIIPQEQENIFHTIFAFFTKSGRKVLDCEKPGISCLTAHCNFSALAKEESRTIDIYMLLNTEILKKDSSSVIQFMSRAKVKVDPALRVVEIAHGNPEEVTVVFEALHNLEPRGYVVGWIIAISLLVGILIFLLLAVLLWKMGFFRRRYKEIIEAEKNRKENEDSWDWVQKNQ
T6 sequence (P05556 21-798): as the sequence (P05556 21-798) above

αIIbβ3 integrin = molecular target: T7, αIIbβ3 integrin (Homo sapiens, UniProt P05106+P08514); experiment: adhesion of A5 cells to fibrinogen; assay type: cell-based
T7 construct: expressed in transfected cells; host or cells: A5 cells
Description: as §2, §3

αvβ3 integrin = molecular target: T8, αvβ3 integrin (Homo sapiens, UniProt P05106+P06756); experiment: adhesion of JY cells to vitronectin; assay type: cell-based; conditions: αvβ3, VN
T8 construct: endogenous in cells; host or cells: JY cells
T8 sequence (P06756 31-889 limits assumed): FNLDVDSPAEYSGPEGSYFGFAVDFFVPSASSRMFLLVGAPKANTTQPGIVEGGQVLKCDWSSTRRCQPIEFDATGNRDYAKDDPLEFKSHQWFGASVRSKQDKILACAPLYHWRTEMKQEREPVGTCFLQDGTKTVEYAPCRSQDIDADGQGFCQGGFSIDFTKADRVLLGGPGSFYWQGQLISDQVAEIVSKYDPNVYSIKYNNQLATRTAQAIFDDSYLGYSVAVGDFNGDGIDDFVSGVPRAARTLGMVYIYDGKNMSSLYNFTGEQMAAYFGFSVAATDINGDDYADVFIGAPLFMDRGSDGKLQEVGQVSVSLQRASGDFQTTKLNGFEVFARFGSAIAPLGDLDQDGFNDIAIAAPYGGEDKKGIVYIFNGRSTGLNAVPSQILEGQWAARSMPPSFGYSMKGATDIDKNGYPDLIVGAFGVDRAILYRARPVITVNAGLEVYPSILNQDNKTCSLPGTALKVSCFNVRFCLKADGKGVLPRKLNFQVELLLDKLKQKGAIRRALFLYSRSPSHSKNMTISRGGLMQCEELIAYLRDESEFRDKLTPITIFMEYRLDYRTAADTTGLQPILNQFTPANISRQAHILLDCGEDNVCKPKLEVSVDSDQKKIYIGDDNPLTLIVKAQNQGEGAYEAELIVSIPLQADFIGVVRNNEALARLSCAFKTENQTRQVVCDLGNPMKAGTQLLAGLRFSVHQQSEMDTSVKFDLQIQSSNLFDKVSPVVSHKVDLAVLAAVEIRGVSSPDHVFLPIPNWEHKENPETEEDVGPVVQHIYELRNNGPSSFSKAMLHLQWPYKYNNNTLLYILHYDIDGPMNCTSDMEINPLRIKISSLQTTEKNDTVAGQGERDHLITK
T8 sequence (P06756 891-1048 partner limits assumed): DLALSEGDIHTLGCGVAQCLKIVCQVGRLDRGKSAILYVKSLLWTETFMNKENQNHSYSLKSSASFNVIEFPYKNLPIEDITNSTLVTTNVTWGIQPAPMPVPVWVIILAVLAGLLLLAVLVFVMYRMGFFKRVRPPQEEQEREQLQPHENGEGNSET
T8 sequence (P05106 27-788): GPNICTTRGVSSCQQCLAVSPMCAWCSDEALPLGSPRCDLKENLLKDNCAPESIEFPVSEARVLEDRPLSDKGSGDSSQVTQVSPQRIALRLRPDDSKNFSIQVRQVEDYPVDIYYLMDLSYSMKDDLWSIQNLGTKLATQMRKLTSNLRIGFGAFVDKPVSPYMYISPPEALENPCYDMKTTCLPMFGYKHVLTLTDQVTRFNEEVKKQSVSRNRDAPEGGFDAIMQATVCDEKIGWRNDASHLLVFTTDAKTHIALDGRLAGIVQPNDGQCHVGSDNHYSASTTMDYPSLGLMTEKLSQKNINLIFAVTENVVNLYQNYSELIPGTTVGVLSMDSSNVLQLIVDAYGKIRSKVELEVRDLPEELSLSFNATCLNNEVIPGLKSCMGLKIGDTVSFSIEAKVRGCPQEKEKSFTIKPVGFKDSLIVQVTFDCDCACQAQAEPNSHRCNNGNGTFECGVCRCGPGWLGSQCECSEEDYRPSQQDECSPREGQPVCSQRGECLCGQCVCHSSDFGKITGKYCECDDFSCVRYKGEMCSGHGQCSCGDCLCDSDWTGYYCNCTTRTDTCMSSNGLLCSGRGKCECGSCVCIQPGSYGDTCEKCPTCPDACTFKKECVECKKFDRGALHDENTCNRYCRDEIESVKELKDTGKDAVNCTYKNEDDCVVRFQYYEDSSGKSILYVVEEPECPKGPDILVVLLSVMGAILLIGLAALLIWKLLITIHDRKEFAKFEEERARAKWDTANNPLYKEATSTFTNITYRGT

Lewis lung carcinoma = Lewis lung carcinoma growth in syngeneic mouse model; assay type: in vivo, C57BL/6 mice; conditions: 5 mg/kg intraperitoneally once daily for eight days
Description: Lewis lung carcinoma cells (1×10^6) were injected under the skin of the C57BL/6 mice (Tacoma Inc., Germantown, N.Y.), and tumors were allowed to grow for one week. The average tumor size after one week of growth was approximately 0.08 cm^3. The one-week time-point was called “day 0.” Two treatment groups of four mice each were injected intraperitoneally once daily with either 5 mg/kg obtustatin or 5 mg/kg echistatin beginning on day 0 for a total of eight days. A control group of four mice received only PBS. Tumor volume was measured daily using the formula length×width^2×0.52.

α2β1 integrin = α2β1 integrin (Homo sapiens, UniProt P05556+P17301); experiment: adhesion of α2K562 cells to collagen I; assay type: cell-based; set-up: expressed in transfected cells; host or cells: α2K562 cells
Description: as §2, §3

angiogenesis = experiment: Japanese quail chorioallantoic membrane (CAM) angiogenesis assay; assay type: in vivo; conditions: 20 μg and 50 μg, in words
Description: The disintegrins obtustatin and eristostatin were evaluated for their effect on angiogenesis via a Japanese quail chorioallantoic membrane (CAM) assay, as is known in the art (see, for example, Parsons-Wingerter P et al., “A Novel Assay of Angiogenesis in the Quail Chorioallantoic Membrane: Stimulation by bFGF and Inhibition by Angiostatin According to Fractal Dimension and Grid Intersection.” Microvascular Research 55(3):201-214, 1998, the disclosure of which is herein incorporated by reference).

| Compound | apoptosis (caspase-3) [1] | apoptosis (caspase-3) [2] | inhibition of α1β1 integrin-mediated adhesion of α1K562 cells to collagen IV (α1β1 integrin [3]; in words) | IC50 (α1β1 integrin [3]) [µM] | IC50 (α1β1 integrin [4]) [µM] | IC50 (α1β1 integrin [5]) [µM] | IC50 (α1β1 integrin [6]) [µM] | IC50 (α6β1 integrin) [µM] | IC50 (α5β1 integrin) [µM] | IC50 (α4β1 integrin) [µM] | IC50 (α9β1 integrin) [µM] | IC50 (αIIbβ3 integrin) [µM] | IC50 (αvβ3 integrin) [µM] | inhibition of tumor development (tumor volume) (Lewis lung carcinoma) | IC50 (α2β1 integrin) [µM] | effect on angiogenesis (fractal dimension) (angiogenesis) | activity relative to obtustatin, mouse α1β1 integrin (α1β1 integrin [6]) |
| --- | --- | --- | --- | --- | --- | --- | --- | --- | --- | --- | --- | --- | --- | --- | --- | --- | --- |
| CC[C@]1(O)C[C@H]2CN(CCc3c([nH]c4ccccc34)[C@@](C(=O)OC)(c3cc4c(cc3OC)N(C=O)[C@H]3[C@@](O)(C(=O)OC)[C@H](OC(C)=O)[C@]5(CC)C=CCN6CC[C@]43[C@@H]65)C2)C1 [vincristine] | induced apoptosis | induced apoptosis | – | – | – | – | – | – | – | – | – | – | – | – | – | – | – |
| CKLKPAGTTC (obtustatin fragment) | – | – | did not appreciably inhibit | – | – | – | – | – | – | – | – | – | – | – | – | – | – |
| Echistatin: short RGD-containing disintegrin (QCESGPCCRNCKFLKEGTICKRARGDDMDDYCNGKTCDCPRNPHKGPAT) [reference compound] | – | – | – | > 10 | > 10 | > 10 | > 10 | > 10 | 0.05 | > 10 | > 10 | 0.05 | 0.0001 | no effect | > 10 | – | – |
| Eristostatin: short disintegrin compared with obtustatin (QEEPCATGPCCRRCKFKRAGKVCRVARGDWNDDYCTGKSCDCPKNPWNG) [reference compound] | – | – | – | > 10 | > 10 | > 10 | > 10 | > 10 | > 10 | > 10 | > 10 | – | 2 | – | > 10 | no affect | – |
| TNF-α | induced apoptosis | induced apoptosis | – | – | – | – | – | – | – | – | – | – | – | – | – | – | – |
| Viperisrastatin (CTTGPCCRQCKLKPAGTTCWKTSRTSHYCTGKSCDCPVYQG) | – | – | – | 8e-05 | 2e-05 | 2e-06 | 0.00025 | > 10 | > 10 | > 10 | > 10 | > 10 | > 10 | – | > 10 | – | similar |
